One molecule from US20190071467A1 can be followed below.

Assay [1] addresses VDAC1 on intact mitochondria purified from NSC34 cells (mouse (NSC34 cell line)) (UniProt Q60932). In words: competition with SOD1-G93A on intact NSC34 mitochondria, fractionation, immunoblot. For orientation: A western blot detects proteins with antibodies after separation by electrophoresis.
The target of assay [2] is human VDAC1, recombinant, C-terminal His-tag, refolded in LDAO (human) (UniProt P21796). Put plainly: competition pull-down on VDAC1-coated magnetic beads (30 uM VDAC1, 6.5 uM SOD1-G93A), anti-SOD1 immunoblot.
Sequence of UniProt P21796 (P21796 other isoform, or with tags, fused parts or gaps limits assumed): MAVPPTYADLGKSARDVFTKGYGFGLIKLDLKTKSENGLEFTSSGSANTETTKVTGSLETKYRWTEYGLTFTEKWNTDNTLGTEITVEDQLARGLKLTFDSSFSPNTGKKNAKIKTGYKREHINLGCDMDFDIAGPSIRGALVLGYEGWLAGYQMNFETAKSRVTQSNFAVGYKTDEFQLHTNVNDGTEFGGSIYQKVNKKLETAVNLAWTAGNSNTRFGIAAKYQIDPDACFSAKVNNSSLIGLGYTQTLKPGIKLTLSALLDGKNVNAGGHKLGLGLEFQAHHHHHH

Sequence of UniProt Q60932 (Q60932 whole entry): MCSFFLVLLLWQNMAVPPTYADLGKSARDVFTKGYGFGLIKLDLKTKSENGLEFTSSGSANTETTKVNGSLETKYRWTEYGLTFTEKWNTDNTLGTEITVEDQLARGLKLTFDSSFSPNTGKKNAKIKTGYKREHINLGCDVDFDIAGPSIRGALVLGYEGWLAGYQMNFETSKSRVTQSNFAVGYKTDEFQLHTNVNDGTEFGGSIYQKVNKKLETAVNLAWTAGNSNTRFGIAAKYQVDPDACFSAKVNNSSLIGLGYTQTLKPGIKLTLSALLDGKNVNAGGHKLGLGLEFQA

As to IAAQLLAYYFT [synthetic peptide NHK1], the percent decrease of SOD1-G93A bound to mitochondria at 60 µM NHK1 in assay [1] was 90%. In assay [2], the percent reduction of SOD1-G93A bound to VDAC1 at 10 µM NHK1 amounted to 40% and the percent reduction of SOD1-G93A bound to VDAC1 at 25 µM NHK1 worked out at 80%.
